{"source": "paper PMC6093232", "about": "“PROMIS, global analysis of PROtein–metabolite interactions using size separation in Arabidopsis thaliana” (The Journal of Biological Chemistry, 2018)", "key": {"[1]": {"molecular_target": "His6-GAPCP2 (A. thaliana) (UniProt Q5E924)", "sequence (Q5E924 67-420)": "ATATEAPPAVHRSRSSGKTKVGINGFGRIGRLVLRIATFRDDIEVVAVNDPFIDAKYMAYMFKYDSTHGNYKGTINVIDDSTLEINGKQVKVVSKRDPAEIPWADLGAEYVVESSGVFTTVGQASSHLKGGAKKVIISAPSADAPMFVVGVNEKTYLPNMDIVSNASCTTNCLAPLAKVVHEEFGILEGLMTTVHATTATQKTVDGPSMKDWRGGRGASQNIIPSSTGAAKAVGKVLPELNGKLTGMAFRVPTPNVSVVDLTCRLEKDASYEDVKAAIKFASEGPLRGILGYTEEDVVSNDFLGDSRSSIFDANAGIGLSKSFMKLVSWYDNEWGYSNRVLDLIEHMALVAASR", "assay": "nano-DSF (thermal shift, Prometheus NT.48); plant GAPCs 0.2–0.25 mg/ml with 25 μM (GAPC1/2, GAPCP1) or 50 μM (GAPCP2) dipeptide in 1× PBS; thermal ramp 2 °C/min, 20–90 °C; Tm from F350/F330"}, "[2]": {"molecular_target": "His6-GAPCP1 (A. thaliana) (UniProt Q9SAJ6)", "sequence (Q9SAJ6 70-422)": "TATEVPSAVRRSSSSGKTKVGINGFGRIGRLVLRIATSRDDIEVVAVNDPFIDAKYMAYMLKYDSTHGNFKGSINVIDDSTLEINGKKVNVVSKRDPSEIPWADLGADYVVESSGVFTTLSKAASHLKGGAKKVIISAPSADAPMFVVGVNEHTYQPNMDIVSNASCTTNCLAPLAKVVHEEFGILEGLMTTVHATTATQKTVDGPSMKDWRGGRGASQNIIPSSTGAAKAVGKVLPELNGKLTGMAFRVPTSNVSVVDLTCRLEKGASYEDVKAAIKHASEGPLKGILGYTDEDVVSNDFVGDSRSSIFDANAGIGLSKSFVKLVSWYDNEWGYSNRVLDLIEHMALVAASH", "assay": "nano-DSF (thermal shift, Prometheus NT.48); plant GAPCs 0.2–0.25 mg/ml with 25 μM (GAPC1/2, GAPCP1) or 50 μM (GAPCP2) dipeptide in 1× PBS; thermal ramp 2 °C/min, 20–90 °C; Tm from F350/F330"}, "[3]": {"molecular_target": "human recombinant GAPDH protein (human) (UniProt P04406)", "sequence (P04406 whole entry)": "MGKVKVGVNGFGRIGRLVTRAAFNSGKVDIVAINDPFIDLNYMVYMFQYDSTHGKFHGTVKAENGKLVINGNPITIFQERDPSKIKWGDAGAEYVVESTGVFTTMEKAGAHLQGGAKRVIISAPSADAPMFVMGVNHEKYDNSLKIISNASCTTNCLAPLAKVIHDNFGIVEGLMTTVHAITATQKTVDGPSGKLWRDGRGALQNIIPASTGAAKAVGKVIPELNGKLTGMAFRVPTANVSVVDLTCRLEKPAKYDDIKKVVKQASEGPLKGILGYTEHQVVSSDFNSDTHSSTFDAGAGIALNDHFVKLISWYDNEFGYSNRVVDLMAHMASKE", "assay": "nano-DSF (thermal shift, Prometheus NT.48); human GAPDH 1 μM with 500 μM dipeptide in 10 mM Tris-HCl pH 7.5, 0.5 M NaCl; thermal ramp 2 °C/min, 20–90 °C; Tm from F350/F330"}}, "data": [{"substance": "dipeptide Tyr–Asp", "values": [{"measurement": "decrease of Tm with 50 μM Tyr–Asp", "setting": "[1]", "value": 1.5, "unit": "°C"}, {"measurement": "decrease of Tm with 25 μM Tyr–Asp", "setting": "[2]", "value": 2, "unit": "°C"}, {"measurement": "increase of Tm with 500 μM Tyr–Asp", "setting": "[3]", "value": 1.1, "unit": "°C"}]}]}
